Test results taken from patent US20040023887A1 (published 2004).

Key:
[1] = target: T1, Insulin receptor prepared according to Bass et al., 1996 (soluble IR-immunoglobulin chimera) (human, UniProt P06213 28-956); assay: phage ELISA, receptor coated on plate; A405 over non-fat milk
T1 construct: extracellular domain; also called sIR-Fc; soluble IR (Bass construct); not shown: immunoglobulin constant domains replacing the transmembrane and intracellular domains

[2] = target: T2, Soluble IGF-1R (R&D Systems, Cat. # 391-GR/CF) (human, UniProt P08069 31-935); assay: as above
T2 construct: extracellular domain; the precursor is cleaved into alpha and beta subunits; also called sIGF-1R

[3] = target: T2, Soluble IGF-1R (R&D Systems, Cat. # …); assay: phage ELISA; IGF-1R ratio divided by IR ratio
[4] = target: T3, human insulin receptor (HIR), purified from transfected cells after solubilization with Triton X-100 (human, UniProt P06213-2 28-1370, limits assumed); assay: competition with 125I-insulin on solubilized HIR, PEG precipitation
T3 construct: mature

[5] = target: T4, human insulin receptor (HIR) (human, UniProt P06213-2 28-1370, limits assumed); assay: 125I-insulin competition on purified HIR
T4 construct: detergent-solubilised receptor

[6] = target: T5, soluble human insulin receptor-immunoglobulin heavy chain chimera (sIR-Fc) (human, UniProt P06213 28-956, limits assumed, Eu3+ (LANCE) labelled in the TR-FRET assays); assay: TR-FRET competition, label b-S175, Eu-sIR-Fc
T5 construct: extracellular domain; also called HIR-immunoglobulin heavy chain chimera; not shown: immunoglobulin heavy chain constant domains

[7] = target: T6, soluble HIR ectodomain (sIR) (human, UniProt P06213-2 28-944, limits assumed); assay: FP competition, label FITC-RP9, sIR
T6 construct: extracellular domain

[8] = target: T5, soluble human insulin …; assay: TR-FRET competition, label b-RP9, Eu-sIR-Fc
[9] = target: T5, soluble human insulin …; assay: FP competition, label FITC-RP9, sIR-Fc
[10] = target: T7, human insulin receptor (HIR) (human, UniProt P06213-2 28-1370, limits assumed); assay: radio-receptor assay, label 125I-insulin, HIR
T7 construct: Also used for the WGA-purified recombinant human insulin receptor of the kinase assay

[11] = target: Insulin Receptor (IR) (UniProt P06213 28-956, limits assumed); assay: BIAcore competition: IR pre-incubated with about 40 µM peptide, residual binding to immobilised insulin
Description: Flowcell-1 was used for background binding to correct for any non-specific binding. […] The surface was regenerated with 25 mM NaOH.

B1: B6L-3-G5-IR (peptide)
peptide: AETSAQVGWQRLWSVWPGDHWSTLDPFYHKLSELLRESGA
notes: library tags and phage coat protein not included
- ratio over background (IR) [1]: 1.4 fold over background
- ratio over background (IGF-1R) [2]: 2 fold over background
- IGF-1R/IR ratio comparison [3]: 1.4 ratio

B2: S415 (peptide)
peptide: ESFYDWFERQLGKX
chain: ESFYDWFERQLGKX
modifications: not fully specified; C-terminus joined to chemical linker 23 of Table 3; C-C linked dimer
notes: Synthetic truncated RP9 homodimer
- Kd [4]: 100 nM

Binder: GIISQSCPESFYDWFAGQVSDPWWCW (also called G33) [S326]
- Kd [5]: 590 nM

Binder: TFYSCLASLLTGTPQPNRGPWERCRKK [S327]
- Kd [5]: 21 nM

Binder: GSLDESFYDWFERQL [S395]
- Kd [5]: 81 nM

Binder: GSLDESFYDWFERQLGKK (also called S371) [RP9]
- IC50 [6]: 6 nM
- IC50 [7]: 0.03 nM
- IC50 [8]: 42 nM
- IC50 [9]: 10 nM
- IC50 [10]: 44 nM

Binder: KWLDQEWAWVQCEVYGRGCPSKK [D8 (synthetic peptide)]
- % Binding [11]: 33%
- Result (RUs) [11]: 41.6 RU

Binder: DRAFYNGLRDLVGAVYGAWD [20C11]
- % Binding [11]: 38%
- Result (RUs) [11]: 49 RU

Binder: VTFTSAVFHENFYDWFVRQVS [H2]
- % Binding [11]: 27%
- Result (RUs) [11]: 34.6 RU

Binder: LCQSWGVRIGWLTGLCP [2A9]
- % Binding [11]: 100%
- Result (RUs) [11]: 128 RU
